Experimental data: patent CN112794898A (YIKANG BIOLOGY SUZHOU CO LTD, dated 2021)

Target: SARS-CoV2 S蛋白受体结合域(RBD) (SARS-CoV2, UniProt P0DTC2 319-541)

B1: 单克隆抗体YK-CoV2-02的Fab (Fab, V domains shown)
VH: QVQLVESGGGLIQPGGSLRLSCAVSGFTVSSNYMSWVRQAPGKGLEWVSVIYPGGSTFYADSVKGRFTISRDNDNSKNTLYLQMNSLRAEDTAVYYCARDWVRGSNWGQGTLVTVSS
VL: EIVLTQSPATLSLSPGERATLSCRASQSVSNYLAWYQQKPGQAPRLLIYDASNRATGIPARFSGSGSGTDFTLTISSLEPEDFAVYYCQERSNWPSGTFGPGTKVDIK
- Kd: 4.03 nM
